Results reported in publication PMC5173322, “Neurodegenerative disease mutations in TREM2 reveal a functional surface and distinct loss-of-function mechanisms” (eLife, 2016).
Where a chain is given by its changes, count along the chain named. Names may count otherwise.

B1: human TREM2 ectodomain Y38C (domain or fragment, UniProt Q9NZC2 19-134, looked up)
chain: HNTTVFQGVAGQSLQVSCPCDSMKHWGRRKAWCRQLGEKGPCQRVVSTHNLWLLSFLRRWNGSTAITDDTLGGTLTITLRNLQPHDAGLYQCQSLHGSEADTLRKVLVEVLADPLD
notes: TREM2, human, ectodomain, limits as the WT ectodomain (amino acids 19-134), Nasu-Hakola disease mutation Y38C; it was detected by anti-6His Western blot; also called NHD mutant Y38C; source: Freestyle 293F cells, transfected, secreted; harvested for preparative SEC; not shown: His6, C-terminal, kept
B2: human TREM2 ectodomain V126G (domain or fragment, UniProt Q9NZC2 19-134, looked up)
chain: B1 chain with C20Y, V108G
notes: TREM2, human, ectodomain, limits as the WT ectodomain (amino acids 19-134), Nasu-Hakola disease mutation V126G; it was detected by anti-6His Western blot; also called NHD mutant V126G; source: Freestyle 293F cells, transfected, secreted; harvested for preparative SEC; not shown: His6, C-terminal, kept
B3: human TREM2 ectodomain T66M (domain or fragment, UniProt Q9NZC2 19-134, looked up)
chain: B1 chain with C20Y, T48M
notes: TREM2, human, ectodomain, limits as the WT ectodomain (amino acids 19-134), Nasu-Hakola disease mutation T66M; it was detected by anti-6His Western blot; also called NHD mutant T66M; source: Freestyle 293F cells, transfected, secreted; harvested for preparative SEC; not shown: His6, C-terminal, kept

Molecular target: the molecule itself
Test: SEC; preparative SEC of NHD mutant ectodomains harvested from 293F suspension cells; fractions analysed by anti-6His Western blot

Protein | binding result
B1 | binds
B2 | binds
B3 | binds
